Biological target: prostate-specific membrane antigen (PSMA) (UniProt Q04609 1-750, limits assumed)
Assay: cell-based or functional assay

Chain of prostate-specific membrane antigen (PSMA) (Q04609 whole entry): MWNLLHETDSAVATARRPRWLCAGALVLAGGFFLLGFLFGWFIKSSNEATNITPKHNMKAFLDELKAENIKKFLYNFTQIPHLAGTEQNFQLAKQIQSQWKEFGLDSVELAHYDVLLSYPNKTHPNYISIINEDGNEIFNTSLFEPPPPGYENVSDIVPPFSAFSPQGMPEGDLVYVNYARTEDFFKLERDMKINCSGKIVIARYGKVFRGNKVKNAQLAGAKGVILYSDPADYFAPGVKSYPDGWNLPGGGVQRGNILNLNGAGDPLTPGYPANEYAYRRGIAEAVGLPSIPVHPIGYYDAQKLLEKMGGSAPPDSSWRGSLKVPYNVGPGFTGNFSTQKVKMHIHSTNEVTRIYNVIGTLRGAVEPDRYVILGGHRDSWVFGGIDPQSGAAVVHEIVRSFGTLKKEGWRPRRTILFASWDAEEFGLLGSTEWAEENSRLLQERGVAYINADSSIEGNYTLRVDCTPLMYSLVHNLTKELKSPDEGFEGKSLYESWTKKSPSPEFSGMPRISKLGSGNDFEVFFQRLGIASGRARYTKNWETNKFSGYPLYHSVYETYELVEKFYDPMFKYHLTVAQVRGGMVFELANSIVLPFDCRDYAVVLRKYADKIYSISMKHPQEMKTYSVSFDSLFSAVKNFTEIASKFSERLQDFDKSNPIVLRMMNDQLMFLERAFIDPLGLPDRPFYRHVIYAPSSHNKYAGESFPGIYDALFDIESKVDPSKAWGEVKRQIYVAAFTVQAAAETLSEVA

B1: P28BB (anti-PSMA chimeric costimulatory receptor) (other)
chain: EVQLQQSGPELVKPGTSVRISCKTSGYTFTEYTIHWVKQSHGKSLEWIGNINPNNGGTTYNQKFEDKATLTVDKSSSTAYMELRSLTSEDSAVYYCAAGWNFDYWGQGTTVTVSSGGGGSGGGGSGGGGSDIVMTQSHKFMSTSVGDRVSIICKASQDVGTAVDWYQQKPGQSPKLLIYWASTRHTGVPDRFTGSGSGTDFTLTITNVQSEDLADYFCQQYNSYPLTFGAGTMLDLKRAAAIEVMYPPPYLDNEKSNGTIIHVKGKHLCPSPLFPGPSKPFWVLVVVGGVLACYSLLVTVAFIIFWVRSKRSRLLHSDYMNMTPRRPGPTRKHYQPYAPPRDFAAYRSRFSVVKRGRKKLLYIFKQPFMRPVQTTQEEDGCSCRFPEEEEGGCE
With B1 the “long-term T cell proliferation (expansion over 31 days) of 19z1+P28BB T cells on AAPCs expressing CD19 and PSMA” value was 58 fold.
